This is an account of results in patent US7264954B2, “Lipoxygenase” (Novozymes A/S, priority 2001, dated 2007).

The target in data set [1] is M. salvinii lipoxygenase (Nakataea oryzae, UniProt P0CT92). The note with it: per substrate.
In data set [2] the test system is CCCCC/C=C\C/C=C\CCCCCCCCOC(C)=O. Put plainly: purified protein, by the assay type.
For data set [3], the system named is CCCCC/C=C\C/C=C\C/C=C\C/C=C\CCCC(=O)O. Put plainly: purified protein, by the assay type.
Data set [4] concerns CCCCC/C=C\C/C=C\CCCCCCCC(=O)OC. Put plainly: purified protein, by the assay type.
For data set [5], the system named is CCCCC/C=C\C/C=C\CCCCCCCC(=O)Cl. The data set is described as follows: purified protein, by the assay type.
In data set [6] the test system is CCCCC/C=C\C/C=C\CCCCCCCCO
Put plainly: purified protein, by the assay type.

In data set [7] the target is T1, soybean lipoxygenase (Glycine max, UniProt P08170).
T1 sequence (P08170 1-839): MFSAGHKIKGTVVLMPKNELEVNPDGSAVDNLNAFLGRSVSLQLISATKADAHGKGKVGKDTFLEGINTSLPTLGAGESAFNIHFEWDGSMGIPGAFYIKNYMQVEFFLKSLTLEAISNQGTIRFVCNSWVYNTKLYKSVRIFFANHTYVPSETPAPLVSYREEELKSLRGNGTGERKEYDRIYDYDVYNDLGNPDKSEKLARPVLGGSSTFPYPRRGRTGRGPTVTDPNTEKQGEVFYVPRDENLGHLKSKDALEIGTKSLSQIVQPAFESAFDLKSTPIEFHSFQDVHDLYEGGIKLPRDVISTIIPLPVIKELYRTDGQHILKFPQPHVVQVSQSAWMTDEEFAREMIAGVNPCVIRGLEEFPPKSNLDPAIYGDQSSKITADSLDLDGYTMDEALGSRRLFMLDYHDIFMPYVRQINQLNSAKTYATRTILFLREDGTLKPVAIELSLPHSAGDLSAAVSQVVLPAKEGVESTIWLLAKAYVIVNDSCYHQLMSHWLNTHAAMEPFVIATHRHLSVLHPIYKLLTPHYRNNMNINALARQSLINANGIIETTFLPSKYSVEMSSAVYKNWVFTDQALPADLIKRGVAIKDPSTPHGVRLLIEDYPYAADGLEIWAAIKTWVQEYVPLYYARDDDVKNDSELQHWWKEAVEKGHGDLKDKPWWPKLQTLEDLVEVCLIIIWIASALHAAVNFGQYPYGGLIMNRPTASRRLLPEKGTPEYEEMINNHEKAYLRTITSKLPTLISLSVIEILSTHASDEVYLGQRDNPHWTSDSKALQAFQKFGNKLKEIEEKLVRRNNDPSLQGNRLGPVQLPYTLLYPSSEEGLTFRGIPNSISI
Put plainly: Substrate kinetic parameters with soybean lipoxygenase (comparison). The class given is biochemical.
Description: Soybean lipoxygenase (type I-B) (cat.# L7315) and astaxanthin (cat.# A-9335) was supplied by Sigma. b-carotene (cat.# 031-05533) were supplied by Wako. For comparison, one substrate was also tested with soybean lipoxygenase.

Data set [8] can be described thus: Bleaching assay, astaxanthin pigment solution. The class given is biochemical. As for the experimental part: (§1) Bleaching effect by lipoxygenase was examined spectrophotometrically at 25° C. by following the absorbance at 470 nm. The pigment solution was prepared as follows. 150 ul of stock pigment solution (1 mg each pigment in 1 ml chloroform) was evaporated to be dry. Then 30 ml of the buffer (50 mM KH2PO4NaHPO4, pH 7.0) with 0.3% of Tween 20 was added slowly and the pigment was dissolved.
(§2) The bleaching effect of M. salvinii LOX was examined. Soybean L1 was included for comparison. β-carotene and astaxanthin were used as pigments.

The nature of data set [9]: Bleaching assay, β-carotene pigment solution. The class given is biochemical. As to the method: as §1, §2

Sequence of M. salvinii lipoxygenase (P0CT92 18-617): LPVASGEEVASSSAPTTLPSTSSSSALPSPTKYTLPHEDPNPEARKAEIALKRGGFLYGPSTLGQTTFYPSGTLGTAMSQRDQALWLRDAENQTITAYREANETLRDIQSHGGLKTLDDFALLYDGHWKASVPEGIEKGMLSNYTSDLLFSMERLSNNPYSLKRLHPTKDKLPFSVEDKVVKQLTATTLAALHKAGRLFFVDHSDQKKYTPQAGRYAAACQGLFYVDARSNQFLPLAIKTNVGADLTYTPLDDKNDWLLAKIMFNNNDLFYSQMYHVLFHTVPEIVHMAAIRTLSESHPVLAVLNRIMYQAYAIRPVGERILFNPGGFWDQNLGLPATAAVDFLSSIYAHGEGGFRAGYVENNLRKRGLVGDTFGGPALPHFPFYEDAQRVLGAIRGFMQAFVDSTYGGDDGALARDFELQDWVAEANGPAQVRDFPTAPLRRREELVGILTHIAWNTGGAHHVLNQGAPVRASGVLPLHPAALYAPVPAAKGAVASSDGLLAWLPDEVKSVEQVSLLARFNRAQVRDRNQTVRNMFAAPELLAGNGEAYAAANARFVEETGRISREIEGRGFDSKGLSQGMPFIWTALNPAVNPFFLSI

As to `CCCCC/C=C/C/C=C/CCCCCCCC(=O)O` [Linoelaidic acid], in [1], the KM entry is “No activity”; the Vmax (in general, the rate approached at saturating substrate) is “No activity”; the Vmax/KM entry was “No activity”.
Consider `CCCCC/C=C\C/C=C\CCCCCCCC(=O)O` [Na linoleate], for which, in data set [1], the Km (in general, the concentration of substrate that gives half-maximal velocity) is 0.41 µM and the Vmax was determined as 2.07 µmol/min/mg.
On to “M. salvinii lipoxygenase (Nakataea oryzae)”, for which the Km came out at 9 µM in data set [2]; 5.5 µM in data set [3]; 30 µM in data set [4]; 12 µM in data set [5]; 8 µM in [6]. The Vmax in [2] is 0.77 µmol/min/mg; in data set [3], 2.44 µmol/min/mg; in data set [4], 0.82 µmol/min/mg; in [5], 0.97 µmol/min/mg; in data set [6], 1.4 µmol/min/mg. Further, the Vmax/Km came to 85000 µL/min/mg in [2]; 446000 µL/min/mg in data set [3]; 26000 µL/min/mg in [4]; 80000 µL/min/mg in [5]; 175000 µL/min/mg in data set [6].
`CCCCC/C=C\C/C=C\CCCCCCCC(=O)O` [Linoleic acid]: in data set [1], the Michaelis-Menten constant (Km) stood at 1 µM and the Vmax turned out to be 2.63 µmol/min/mg. Besides, in data set [7], the Km was 230 µM and the maximum rate (Vmax) amounted to 12.3 µmol/min/mg.
On to `CC/C=C\C/C=C\C/C=C\CCCCCCCC(=O)O` [Linolenic acid], for which the Km in data set [1] was determined as 0.4 µM.

B1: Soybean L1: Soybean lipoxygenase (type I-B) (cat.# L7315) supplied by Sigma, included for comparison (protein, UniProt P08170 1-839, looked up)
Seed linoleate …: MFSAGHKIKGTVVLMPKNELEVNPDGSAVDNLNAFLGRSVSLQLISATKADAHGKGKVGKDTFLEGINTSLPTLGAGESAFNIHFEWDGSMGIPGAFYIKNYMQVEFFLKSLTLEAISNQGTIRFVCNSWVYNTKLYKSVRIFFANHTYVPSETPAPLVSYREEELKSLRGNGTGERKEYDRIYDYDVYNDLGNPDKSEKLARPVLGGSSTFPYPRRGRTGRGPTVTDPNTEKQGEVFYVPRDENLGHLKSKDALEIGTKSLSQIVQPAFESAFDLKSTPIEFHSFQDVHDLYEGGIKLPRDVISTIIPLPVIKELYRTDGQHILKFPQPHVVQVSQSAWMTDEEFAREMIAGVNPCVIRGLEEFPPKSNLDPAIYGDQSSKITADSLDLDGYTMDEALGSRRLFMLDYHDIFMPYVRQINQLNSAKTYATRTILFLREDGTLKPVAIELSLPHSAGDLSAAVSQVVLPAKEGVESTIWLLAKAYVIVNDSCYHQLMSHWLNTHAAMEPFVIATHRHLSVLHPIYKLLTPHYRNNMNINALARQSLINANGIIETTFLPSKYSVEMSSAVYKNWVFTDQALPADLIKRGVAIKDPSTPHGVRLLIEDYPYAADGLEIWAAIKTWVQEYVPLYYARDDDVKNDSELQHWWKEAVEKGHGDLKDKPWWPKLQTLEDLVEVCLIIIWIASALHAAVNFGQYPYGGLIMNRPTASRRLLPEKGTPEYEEMINNHEKAYLRTITSKLPTLISLSVIEILSTHASDEVYLGQRDNPHWTSDSKALQAFQKFGNKLKEIEEKLVRRNNDPSLQGNRLGPVQLPYTLLYPSSEEGLTFRGIPNSISI
Consider B1, for which the ΔA470/min in data set [8] (Astaxanthin) worked out at 0.0021; in [9] (β-carotene) it was 0.00005. Further, the LOX activity in [8] (Astaxanthin experiment) is recorded as 2.018; in data set [9] (β-carotene experiment), 1.962. Moreover, the “absorbance at 470 nm” value in data set [8] (Astaxanthin, time 0 min, 25° C., pH 7.0) is reported as 0.5026; in data set [8] (Astaxanthin, time 0.4 min) it was 0.5029; in data set [8] (Astaxanthin, time 0.8 min) it was 0.505; in data set [8] (Astaxanthin, time 1 min), 0.5025; in [8] (Astaxanthin, time 1.4 min) it was 0.5013; in data set [8] (Astaxanthin, time 1.8 min) it was 0.4993. The “absorbance at 470 nm” value in data set [8] (Astaxanthin, time 2.2 min) is 0.4985; in data set [8] (Astaxanthin, time 2.6 min), 0.4986; in data set [8] (Astaxanthin, time 3 min), 0.498; in [9] (β-carotene, time 0 min, 25° C., pH 7.0), 0.3575; in [9] (β-carotene, time 0.4 min), 0.3616; in data set [9] (β-carotene, time 0.8 min), 0.3601. The “absorbance at 470 nm” value was determined as 0.362 in data set [9] (β-carotene, time 1.2 min); 0.3602 in [9] (β-carotene, time 1.4 min); 0.3602 in data set [9] (β-carotene, time 1.8 min); 0.3595 in data set [9] (β-carotene, time 2.2 min); 0.3595 in data set [9] (β-carotene, time 2.6 min); 0.3594 in [9] (β-carotene, time 3 min). For the same molecule, the “bleaching effect (in words)” value in data set [9] (β-carotene and astaxanthin pigment solutions) is reported as “little effect on bleaching”.
